Values joined by “and” are separate entries in the source; they are usually repeats but may differ in a detail not shown here. Identical values can stand only once.
What was measured:
Recombinant mouse SOUL = conditions: printed as range in words; ref [19] Sato et al., 2004; cited from earlier work
[1] = UV–visible spectrum of haemin alone; format: physicochemical; conditions: 10 μM haemin; 20 mM Tris/HCl (pH 7.5), 0.15 M NaCl; 30 min, 25 °C
15N-labelled SOUL = assay: 15N-1H HSQC NMR titration of 15N-labelled SOUL with haemin; format: binding, human; conditions: 0.5, 1, 2, 3 and 4 equivalents haemin, Tris/HCl buffer, 25 °C; more than 1 day of observation
[2] = biological target: human Bcl-xL lacking only the C-terminal transmembrane domain (after amino acid 209) (human, UniProt Q07817-1 1-209); assay: NMR titration
Chain of human Bcl-xL lacking only the C-terminal transmembrane domain (after amino acid 209) (Q07817 1-209): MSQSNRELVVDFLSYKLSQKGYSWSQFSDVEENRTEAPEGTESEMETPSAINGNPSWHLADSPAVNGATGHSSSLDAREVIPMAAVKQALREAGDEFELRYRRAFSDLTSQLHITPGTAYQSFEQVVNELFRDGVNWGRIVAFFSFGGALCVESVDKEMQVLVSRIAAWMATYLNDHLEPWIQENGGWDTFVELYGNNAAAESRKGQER

caspase 8 = caspase 8 cleavage experiment; format: biochemical; conditions: human BID as control; results not shown
[3] = tested on: mitochondrial permeability transition / cell death; conditions: cited from earlier work

Molecule: C=CC1=C(C)c2cc3[n-]c(cc4[n-]c(cc5nc(cc1n2)C(C)=C5C=C)c(C)c4CCC(=O)O)c(CCC(=O)O)c3C.[Fe+2] [haem]
- dissociation constant for haem binding (Recombinant mouse SOUL): nanomolar range

Molecule: C=CC1=C(C)c2cc3[n-]c(cc4nc(cc5[n-]c(cc1n2)c(C)c5C=C)C(C)=C4CCC(=O)O)c(CCC(=O)O)c3C.[Cl-].[Fe+3] [haemin]
- haemin absorption peak position, haemin alone [1]: 390 nM
- change of SOUL HSQC spectrum with haemin (15N-labelled SOUL): the spectrum remained unaltered

Molecule: SAQKNQEQLLTLASILREDGKVFDEK [SOUL BH3 peptide (26-amino-acid-long peptide spanning residues 147–172 of human SOUL)]
- Kd [2]: 47.8 µM and 41.3 µM

B1: SOUL: human SOUL protein, recombinant, expressed in E. coli, histidine tag removed by thrombin (protein)
chain: MAEPLQPDPGAAEDAAAQAVETPGWKAPEDAGPQPGSYEIRHYGPAKWVSTSVESMDWDSAIQTGFTKLNSYIQGKNEKEMKIKMTAPVTSYVEPGSGPFSESTITISLYIPSEQQFDPPRPLESDVFIEDRAEMTVFVRSFDGFSSAQKNQEQLLTLASILREDGKVFDEKVYYTAGYNSPVKLLNRNNEVWLIQKNEPTKENE
modifications: left off: His tag, C-terminal, cleaved
- cleavage by caspase 8 (caspase 8): is not a substrate of this enzyme
- effect of deletion of putative BH3 domain on apoptotic effects ([3]; human SOUL, BH3 domain deleted, ref [21] Szigeti et al., 2010): abolished the apoptotic effects of SOUL
- induction of MPT ([3]; leads to mitochondrial swelling and cell death, ref [20] Szigeti et al., 2006): can induce the MPT

From PMC3174058 (Biochemical Journal, 2011)
